Measured values from US12331106B2, “Anti-angiopoietin-2 antibodies that induce Tie2 activation” (Institute for Basic Science, priority 2018, dated 2025).
Residue numbers refer to the chain shown, from its start.

T1: hAng2 (Homo sapiens, UniProt O15123)
T1 sequence (O15123 19-496): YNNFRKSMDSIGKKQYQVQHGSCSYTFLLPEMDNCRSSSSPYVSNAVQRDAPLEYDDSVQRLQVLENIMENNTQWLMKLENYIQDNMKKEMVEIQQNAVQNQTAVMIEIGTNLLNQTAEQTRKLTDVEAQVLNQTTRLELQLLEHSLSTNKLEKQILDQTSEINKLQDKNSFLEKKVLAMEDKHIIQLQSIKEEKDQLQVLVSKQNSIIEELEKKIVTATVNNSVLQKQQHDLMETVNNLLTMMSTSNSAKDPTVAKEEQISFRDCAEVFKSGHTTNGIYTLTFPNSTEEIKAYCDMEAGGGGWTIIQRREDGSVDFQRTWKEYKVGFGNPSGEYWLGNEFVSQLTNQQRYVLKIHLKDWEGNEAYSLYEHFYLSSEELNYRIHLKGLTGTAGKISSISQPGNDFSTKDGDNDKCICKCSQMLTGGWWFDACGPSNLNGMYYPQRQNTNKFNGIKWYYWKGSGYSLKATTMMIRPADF

B1: 2F10: mouse monoclonal anti-Ang2 antibody; VH SEQ ID NO: 29, VL SEQ ID NO: 31 (antibody, V domains shown)
VH: QVQLVESGGGLVKPGGSLKLSCAASGFTFSDYYMYWIRQTPEKRLEWVATINDGGSYTYYPDSVKGRFTISRDNAKNNLYLQMSSLKSEDTAMYYCARDWGLRPWFVYWGQGTLVTVSA
VL: DIVMTQSHKFMSTSVGDRVSITCKASQDVSTAVAWYQQKPGQSPKLLIYWASTRHTGVPDRFTGSGSGTDYTLTISSVQAEDLALYYCQQHYTTPPTFGSGTKLEIK
modifications: Heavy Chain Variable Region; Light Chain Variable Region
B2: 4E2: mouse monoclonal anti-Ang2 antibody; VH SEQ ID NO: 39, VL SEQ ID NO: 41 (antibody, V domains shown)
VH: EVQLQQSGPELEKPGASVKISCKASGYSFTGYNMNWVKQSNGKSLEWIGNIDPYYGGTSYNQKFKGKATLTVDKSSSTAYMQLKSLTSEDSAVYYCVRYGNYVDYWGQGTTLTVSS
VL: B1 VL with T93N
modifications: Heavy Chain Variable Region; Light Chain Variable Region

Assays:
[1] = tested on: downstream signaling of the Tie2 receptor (Akt phosphorylation) in HUVECs; assay: Akt phosphorylation in HUVECs by mouse anti-Ang2 antibodies plus hAng2 (immunoblot); assay type: cell-based, human; settings: serum-starved HUVECs; antibody combined with hAng2 1 μg/ml; 30 min
Method: To investigate whether the mouse anti-Ang2 antibodies induce the downstream signaling of the Tie2 receptor in endothelial cells, HUVECs (LONZA™) were treated with a combination of hAng2 protein and anti-Ang2 antibody, and then the level of Akt phosphorylation, the main downstream signaling protein of Tie2 receptor, was analyzed by immunoblotting. As a negative control group, the full-length hAng2 (R&D® Systems) alone was treated into the cells.
Specifically, HUVECs (1×10^5 cells/ml) were cultured in EGM-2 medium (LONZA™) at 37° C. in a 60 mm culture dish. Cells (90% confluency) were incubated with serum-free EBM-2 medium for 4 hrs for serum starvation. The serum-starved HUVECs were treated with a mixture of anti-Ang2 antibody and hAng2 protein (1 μg/ml, R&D® Systems) and further incubated for 30 min. The cells were washed with cold PBS, treated with lysis buffer, and lysed at 4° C. for 20 min. Then, the cell lysates were prepared by centrifugation at 13000 rpm for 15 min. 5× SDS sample buffer was added to the cell lysate and the cell lysate was boiled at 95° C. for 5 min. Then, the cell lysate was subjected to SDS PAGE and proteins were transferred to a nitrocellulose membrane (GE).
To investigate Akt phosphorylation, the blot was blocked with 5% skim milk-containing TBS-T for 1 hr at room temperature (RT), and incubated with anti-phospho-Akt antibody (S473) at 4° C. for about 8 hrs. The amount of phospho-Akt was visualized by an enhanced chemiluminescence (ECL). Then, the membrane was incubated in a stripping buffer (Thermo) for 15 min, and then reprobed with an anti-Akt antibody to determine the amount of total Akt.

hAng2 = target: T1, hAng2; assay: OCTET affinity of mouse monoclonal anti-Ang2 antibodies against hAng2; settings: hAng2 fixed on AR2G biosensor, 1:1 binding model
Method: The affinity of mouse monoclonal antibody against hAng2 was measured using OCTET® system (ForteBio, real-time, label-free bio-layer interferometry system for determination of affinity, kinetics, and concentration). Specifically, buffer and samples were measured in total 200 μl/well using Black 96-well plates (96 well F-type black plates, Greiner). The biosensor used for affinity measurements was hydrated for 10 min before measurement with AR2G tip (ForteBio OCTET®). After the hydration, hAng2 was diluted in 10 mM sodium acetate, pH 6.0 buffer at a concentration of 10 μg/ml, fixed on AR2G biosensor, and blocked with 1M ethanolamine. The mouse monoclonal anti-Ang2 antibodies were diluted to 50, 25, 12.5, 6.25, 3.125, and 0 nM with 1× kinetic buffer, and subjected to association for 300 seconds and dissociation for 900 seconds. For affinity measurement (KD), the association rate (K-on) and dissociation rate (K-off) were analyzed by binding curve (global) and fitted to 1:1 binding model using OCTET® data analysis v9.0.0.10 program.

Molecule | Akt phosphorylation at S473 [1] | Koff (hAng2) | Kon (hAng2)
B1 | strongly induced | 1.71e-05 s⁻¹ | 124000 M⁻¹ s⁻¹
B2 | strongly induced | 0.000134 s⁻¹ | 28300 M⁻¹ s⁻¹
